The target of test [1] is glycopeptide B (SEQ ID NO: 21), BSA-PEG4 conjugate. The test is described as follows: antigen solid-phase ELISA, AAL lectin as positive control. (In general: An ELISA detects its analyte on a solid surface through an enzyme-linked reagent.)
Test [2] addresses non-fucosylated glycopeptide B (SEQ ID NO: 22), BSA-PEG4 conjugate. The test is described as follows: antigen solid-phase ELISA, WGA lectin as positive control.

On to AAL lectin (from UniProt P18891 2-313), for which, in test [1], the OD450 is 0.335 OD450.
Take WGA lectin: in test [2], the OD450 is 3 OD450.

For the origin of these results see patent US20170342140A1.
